Experimental data: patent US20130079278A1 (Novo Nordisk, published 2013)
*1 amine or outer side, *2 acyl side, *3 side chain or, on linkers, in order; H or OH if unused. Where no end group is shown, it is not given here. Side-chain parts run from the residue outwards. The star is where a group is joined. X1 = 4‑(16-(1H-tetrazol-5-yl)hexadecanoylsulfamoyl)butanoyl, O=C(CCCCCCCCCCCCCCCc1nnn[nH]1)NS(=O)(=O)CCCC(=O)*; C18 diacid = O=C(O)CCCCCCCCCCCCCCCCC(=O)*; γGlu = O=C(O)[C@H](CCC(=O)[*:2])N[*:1]; AEEA = NCCOCCOCC(=O)O

B1: N^ε24-[(4S)-4-carboxy-4-[[(4S)-4-carboxy-4-[[2-[2-[2-[[2-[2-[2-[[(4S)-4-carboxy-4-(17-carboxyheptadecanoylamino)butanoyl]amino]ethoxy]ethoxy]acetyl]amino]ethoxy … (peptide)
peptide: HSQGTFTSDYSKYLESRRAQDFVK([γGlu-γGlu-AEEA-AEEA-γGlu-C18 diacid])WLLST-NH2
modifications: N-terminus assumed
SMILES: CC(C)C[C@H](NC(=O)[C@H](Cc1ccc(O)cc1)NC(=O)[C@H](CCCCN)NC(=O)[C@H](CO)NC(=O)[C@H](Cc1ccc(O)cc1)NC(=O)[C@H](CC(=O)O)NC(=O)[C@H](CO)NC(=O)[C@@H](NC(=O)[C@H](Cc1ccccc1)NC(=O)[C@@H](NC(=O)CNC(=O)[C@H](CCC(N)=O)NC(=O)[C@H](CO)NC(=O)[C@@H](N)Cc1c[nH]cn1)[C@@H](C)O)[C@@H](C)O)C(=O)N[C@@H](CCC(=O)O)C(=O)N[C@@H](CO)C(=O)N[C@@H](CCCNC(=N)N)C(=O)N[C@@H](CCCNC(=N)N)C(=O)N[C@@H](C)C(=O)N[C@@H](CCC(N)=O)C(=O)N[C@@H](CC(=O)O)C(=O)N[C@@H](Cc1ccccc1)C(=O)N[C@H](C(=O)N[C@@H](CCCCNC(=O)CC[C@H](NC(=O)CC[C@H](NC(=O)COCCOCCNC(=O)COCCOCCNC(=O)CC[C@H](NC(=O)CCCCCCCCCCCCCCCCC(=O)O)C(=O)O)C(=O)O)C(=O)O)C(=O)N[C@@H](Cc1c[nH]c2ccccc12)C(=O)N[C@@H](CC(C)C)C(=O)N[C@@H](CC(C)C)C(=O)N[C@@H](CO)C(=O)N[C@H](C(N)=O)[C@@H](C)O)C(C)C
B2: N^ε24-[(4S)-4-carboxy-4-[[2-[2-[2-[[2-[2-[2-[[(4S)-4-carboxy-4-[[(4S)-4-carboxy-4-(17-carboxyheptadecanoylamino)butanoyl]amino]butanoyl]amino]ethoxy]ethoxy]acet … (peptide)
peptide: HSQGTFTSDVSKYLDTRRAQEFVK([γGlu-AEEA-AEEA-γGlu-γGlu-C18 diacid])WLLST-NH2
modifications: N-terminus assumed
SMILES: CC(C)C[C@H](NC(=O)[C@H](Cc1c[nH]c2ccccc12)NC(=O)[C@H](CCCCNC(=O)CC[C@H](NC(=O)COCCOCCNC(=O)COCCOCCNC(=O)CC[C@H](NC(=O)CC[C@H](NC(=O)CCCCCCCCCCCCCCCCC(=O)O)C(=O)O)C(=O)O)C(=O)O)NC(=O)[C@@H](NC(=O)[C@H](Cc1ccccc1)NC(=O)[C@H](CCC(=O)O)NC(=O)[C@H](CCC(N)=O)NC(=O)[C@H](C)NC(=O)[C@H](CCCNC(=N)N)NC(=O)[C@H](CCCNC(=N)N)NC(=O)[C@@H](NC(=O)[C@H](CC(=O)O)NC(=O)[C@H](CC(C)C)NC(=O)[C@H](Cc1ccc(O)cc1)NC(=O)[C@H](CCCCN)NC(=O)[C@H](CO)NC(=O)[C@@H](NC(=O)[C@H](CC(=O)O)NC(=O)[C@H](CO)NC(=O)[C@@H](NC(=O)[C@H](Cc1ccccc1)NC(=O)[C@@H](NC(=O)CNC(=O)[C@H](CCC(N)=O)NC(=O)[C@H](CO)NC(=O)[C@@H](N)Cc1c[nH]cn1)[C@@H](C)O)[C@@H](C)O)C(C)C)[C@@H](C)O)C(C)C)C(=O)N[C@@H](CC(C)C)C(=O)N[C@@H](CO)C(=O)N[C@H](C(N)=O)[C@@H](C)O

Biological target: glucagon receptor (human, UniProt P47871 26-477)
Test: cell-based or functional assay

Chain of glucagon receptor (P47871 26-477): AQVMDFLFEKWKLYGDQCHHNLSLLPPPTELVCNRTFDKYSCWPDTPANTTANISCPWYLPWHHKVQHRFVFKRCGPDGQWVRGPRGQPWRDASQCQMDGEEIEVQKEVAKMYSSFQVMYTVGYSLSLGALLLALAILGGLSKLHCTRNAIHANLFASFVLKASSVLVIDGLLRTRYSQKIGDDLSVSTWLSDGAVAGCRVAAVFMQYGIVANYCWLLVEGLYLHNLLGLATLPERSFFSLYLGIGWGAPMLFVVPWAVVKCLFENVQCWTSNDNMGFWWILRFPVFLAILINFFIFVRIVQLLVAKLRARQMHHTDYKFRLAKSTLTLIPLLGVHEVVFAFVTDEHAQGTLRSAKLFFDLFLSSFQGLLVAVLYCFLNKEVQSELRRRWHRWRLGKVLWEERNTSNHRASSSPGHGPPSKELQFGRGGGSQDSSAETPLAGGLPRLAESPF

Row | Assay (I) Glucagon [EC50] | Binder
1 | 0.517 nM | HSQGTFTSDYSKYLESRRAQDFVK([γGlu-γGlu-AEEA-AEEA-γGlu-C18 diacid])WLLQT
2 | 0.099 nM | HSQGTFTSDYSRYLDIRRAQEFVK([γGlu-γGlu-AEEA-AEEA-γGlu-C18 diacid])WLEST
3 | 1.09 nM | HSQGTFTSDYSRYLESRRAQEFVK([γGlu-γGlu-AEEA-AEEA-γGlu-C18 diacid])WLEST
4 | 0.682 nM | HSQGTFTSDYSKYLESRRAQDFVK([γGlu-γGlu-AEEA-AEEA-γGlu-C18 diacid])WLEST
5 | 0.176 nM | HSQGTFTSDVSRYLDTRRAQEFVK([γGlu-AEEA-AEEA-γGlu-γGlu-C18 diacid])WLLST
6 | 0.148 nM | HSQGTFTSDYSRYLESRRAQEFVK([γGlu-γGlu-γGlu-γGlu-C18 diacid])WLLST
7 | 0.088 nM | HSQGTFTSDVSKYLDLRRAQEFVK([γGlu-AEEA-AEEA-γGlu-γGlu-C18 diacid])WLLST
8 | 0.192 nM | HSQGTFTSDYSKYLDARRAQDFVK([γGlu-γGlu-AEEA-AEEA-γGlu-C18 diacid])WLLQT
9 | 0.362 nM | HSQGTFTSDYSKYLESRRAQDFVK([γGlu-γGlu-AEEA-γGlu-X1])WLLST
10 | 0.118 nM | HSQGTFTSDVSKYLESRRAQEFVK([γGlu-γGlu-γGlu-γGlu-C18 diacid])WLLST
11 | 0.204 nM | HSQGTFTSDYSRYLDLRRAQDFVK([γGlu-γGlu-AEEA-AEEA-γGlu-C18 diacid])WLLQT
12 | 1.63 nM | HSQGTFTSDVSRYLESRRAQEFVK([γGlu-γGlu-AEEA-AEEA-γGlu-C18 diacid])WLEST
13 | 0.08 nM | HSQGTFTSDVSKYLDTRRAQEFVK([AEEA-AEEA-γGlu-γGlu-γGlu-C18 diacid])WLLST
14 | 0.289 nM | HSQGTFTSDYSRYLESRRAQEFVK([γGlu-γGlu-AEEA-AEEA-γGlu-C18 diacid])WLLST
15 | 0.07 nM | HSQGTFTSDYSKYLDARRAQDFVK([γGlu-γGlu-AEEA-AEEA-γGlu-C18 diacid])WLEST
16 | 0.077 nM | HSHGTFTSDYSKYLDSKRAQEFVK([γGlu-γGlu-AEEA-γGlu-C18 diacid])WLLST
17 | 0.169 nM | HSQGTFTSDYSKYLESRRAQEFVK([γGlu-γGlu-γGlu-γGlu-C18 diacid])WLLST
18 | 0.134 nM | B1
19 | 0.105 nM | HSHGTFTSDYSKYLDSRRAQDFVK([γGlu-γGlu-AEEA-AEEA-γGlu-C18 diacid])WLLNT
20 | 0.095 nM | HSQGTFTSDYSRYLDLRRAQEFVK([γGlu-γGlu-AEEA-AEEA-γGlu-C18 diacid])WLLST
21 | 0.395 nM | HSQGTFTSDYSKYLESRRAQDFVK([γGlu-γGlu-AEEA-X1])WLLST
22 | 0.156 nM | B2
23 | 0.136 nM | HSQGTFTSDYSRYLDLRRAQDFVK([γGlu-γGlu-AEEA-AEEA-γGlu-C18 diacid])WLEST
